# Paper PMC9482650, “Quantitative fragmentomics allow affinity mapping of interactomes” (Nature Communications, 2022)
# T1: DFNB31_3, Q9P202
# T1 sequence (Q9P202 811-907, limits assumed, looked up): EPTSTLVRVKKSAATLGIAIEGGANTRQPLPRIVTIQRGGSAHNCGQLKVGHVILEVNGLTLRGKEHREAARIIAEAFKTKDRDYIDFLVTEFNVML
# T2: MPP2, Q14168
# T2 sequence (Q14168 180-250, limits assumed, looked up): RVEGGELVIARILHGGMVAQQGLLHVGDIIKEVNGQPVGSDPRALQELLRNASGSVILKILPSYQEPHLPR
# T3: APBA2_2, Q99767
# T3 sequence (Q99767 654-744, limits assumed, looked up): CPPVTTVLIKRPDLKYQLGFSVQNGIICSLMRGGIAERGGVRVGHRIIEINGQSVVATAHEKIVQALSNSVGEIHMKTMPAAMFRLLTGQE
# T4: LIN7A, O14910
# T4 sequence (O14910 103-200, limits assumed, looked up): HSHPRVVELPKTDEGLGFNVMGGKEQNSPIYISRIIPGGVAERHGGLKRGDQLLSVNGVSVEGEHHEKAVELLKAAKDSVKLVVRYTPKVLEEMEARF
# T5: HTRA4, P83105
# T5 sequence (P83105 378-476, limits assumed, looked up): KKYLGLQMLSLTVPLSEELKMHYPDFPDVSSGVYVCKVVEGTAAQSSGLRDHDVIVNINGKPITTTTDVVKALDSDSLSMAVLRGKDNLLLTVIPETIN
# T6: SNTA1, Q13424
# T6 sequence (Q13424 82-180, limits assumed, looked up): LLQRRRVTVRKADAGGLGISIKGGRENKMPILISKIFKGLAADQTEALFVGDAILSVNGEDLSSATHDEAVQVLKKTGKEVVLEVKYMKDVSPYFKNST
# T7: APBA1_1, Q02410
# T7 sequence (Q02410 651-752, limits assumed, looked up): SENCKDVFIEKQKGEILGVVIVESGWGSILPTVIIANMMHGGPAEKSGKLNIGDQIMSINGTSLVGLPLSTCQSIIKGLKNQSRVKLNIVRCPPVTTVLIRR
# T8: DFNB31_2, Q9P202
# T8 sequence (Q9P202 274-371, limits assumed, looked up): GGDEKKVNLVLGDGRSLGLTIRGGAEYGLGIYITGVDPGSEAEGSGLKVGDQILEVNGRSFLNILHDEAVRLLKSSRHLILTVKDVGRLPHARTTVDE
# T9: PARD3B_1, Q8TEW8
# T9 sequence (Q8TEW8 196-299, limits assumed, looked up): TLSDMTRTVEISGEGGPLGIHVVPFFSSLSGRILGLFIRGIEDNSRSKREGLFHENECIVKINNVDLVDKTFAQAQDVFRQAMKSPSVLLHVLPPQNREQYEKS
# T10: FRMPD1, Q5SYB0
# T10 sequence (Q5SYB0 52-145, limits assumed, looked up): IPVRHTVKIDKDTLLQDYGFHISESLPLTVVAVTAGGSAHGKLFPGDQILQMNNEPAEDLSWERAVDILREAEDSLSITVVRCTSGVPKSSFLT
# T11: DLG3_1, Q92796
# T11 sequence (Q92796 125-227, limits assumed, looked up): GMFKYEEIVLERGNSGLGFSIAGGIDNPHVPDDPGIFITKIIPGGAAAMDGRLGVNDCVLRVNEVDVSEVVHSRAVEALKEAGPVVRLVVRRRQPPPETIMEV
# T12: GRIP1_2, Q9Y3R0
# T12 sequence (Q9Y3R0 145-248, limits assumed, looked up): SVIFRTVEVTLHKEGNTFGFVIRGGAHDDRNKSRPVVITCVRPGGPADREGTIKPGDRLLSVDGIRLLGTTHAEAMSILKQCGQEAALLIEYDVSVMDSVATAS
# Columns and labels:
# Assay in all cases: holdup assay
# Set-up in all cases: key: below the threshold = too weak to quantify, mostly under pKd 3.1 to 4
# [1] = biological target: FRMPD4, Q14CM0
# [2] = biological target: T1, DFNB31_3, Q9P202
# [3] = biological target: GRIP2_7, Q9C0E4
# [4] = biological target: T2, MPP2, Q14168
# [5] = biological target: GRASP, Q7Z6J2
# [6] = biological target: MAGI2_4, Q86UL8
# [7] = biological target: T3, APBA2_2, Q99767
# [8] = biological target: T4, LIN7A, O14910
# [9] = biological target: T5, HTRA4, P83105
# [10] = biological target: MAGI1_1, Q96QZ7
# [11] = biological target: T6, SNTA1, Q13424
# [12] = biological target: MAST2, Q6P0Q8
# [13] = biological target: T7, APBA1_1, Q02410
# [14] = biological target: MAGI2_6, Q86UL8
# [15] = biological target: IL16_3, Q14005
# [16] = biological target: GORASP2, Q9H8Y8
# [17] = biological target: T8, DFNB31_2, Q9P202
# [18] = biological target: T9, PARD3B_1, Q8TEW8
# [19] = biological target: SCRIB_1, Q14160
# [20] = biological target: T10, FRMPD1, Q5SYB0
# [21] = biological target: T11, DLG3_1, Q92796
# [22] = biological target: T12, GRIP1_2, Q9Y3R0
# [23] = biological target: LNX1_2, Q8TBB1
# [24] = biological target: HTRA1, Q92743
# [25] = biological target: DLG2_2, Q15700
# [26] = plain residues with an end cap or a label only (N-terminal biotin on a linker: ttds)
# [27] = plain residues with an end cap or a label only (N-terminal biotin on a linker: ahx)
# Sequence of DLG2_2, Q15700 (Q15700 189-283): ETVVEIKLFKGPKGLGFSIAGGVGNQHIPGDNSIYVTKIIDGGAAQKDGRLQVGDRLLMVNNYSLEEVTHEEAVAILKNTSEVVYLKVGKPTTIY
# Sequence of MAGI2_4, Q86UL8 (Q86UL8 772-865): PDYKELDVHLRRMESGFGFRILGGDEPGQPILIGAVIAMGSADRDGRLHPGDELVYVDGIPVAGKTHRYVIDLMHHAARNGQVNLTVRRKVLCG
# Sequence of LNX1_2, Q8TBB1 (Q8TBB1 371-470): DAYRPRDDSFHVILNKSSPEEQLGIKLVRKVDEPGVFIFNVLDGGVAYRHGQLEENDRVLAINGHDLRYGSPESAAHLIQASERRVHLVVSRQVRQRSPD
# Sequence of MAGI1_1, Q96QZ7 (Q96QZ7 1-106): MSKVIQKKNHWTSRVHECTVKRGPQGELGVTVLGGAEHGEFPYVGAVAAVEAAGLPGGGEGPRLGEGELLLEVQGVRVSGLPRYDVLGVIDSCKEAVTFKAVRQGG
# Sequence of GRIP2_7, Q9C0E4 (Q9C0E4 934-1023): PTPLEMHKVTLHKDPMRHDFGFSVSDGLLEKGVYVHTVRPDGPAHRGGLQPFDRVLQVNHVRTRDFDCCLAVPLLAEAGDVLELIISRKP
# Sequence of FRMPD4, Q14CM0 (Q14CM0 67-160): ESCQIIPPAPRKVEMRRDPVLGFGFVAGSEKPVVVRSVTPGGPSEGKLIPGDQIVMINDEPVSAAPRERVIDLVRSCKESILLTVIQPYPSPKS
# Sequence of MAST2, Q6P0Q8 (Q6P0Q8 1099-1202): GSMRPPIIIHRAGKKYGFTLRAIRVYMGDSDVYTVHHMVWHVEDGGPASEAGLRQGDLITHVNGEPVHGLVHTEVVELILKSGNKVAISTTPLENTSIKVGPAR
# Sequence of SCRIB_1, Q14160 (Q14160 718-814): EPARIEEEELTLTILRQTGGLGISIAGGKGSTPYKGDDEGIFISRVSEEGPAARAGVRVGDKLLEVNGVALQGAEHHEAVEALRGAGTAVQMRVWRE
# Sequence of HTRA1, Q92743 (Q92743 360-477): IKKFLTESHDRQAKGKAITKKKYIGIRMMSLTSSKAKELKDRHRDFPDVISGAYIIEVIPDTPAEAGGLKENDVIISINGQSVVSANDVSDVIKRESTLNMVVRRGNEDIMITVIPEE
# Sequence of MAGI2_6, Q86UL8 (Q86UL8 1141-1229): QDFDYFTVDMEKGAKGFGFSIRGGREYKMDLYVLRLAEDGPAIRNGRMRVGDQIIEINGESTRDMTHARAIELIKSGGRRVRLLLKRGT
# Sequence of GRASP, Q7Z6J2 (Q7Z6J2 96-193): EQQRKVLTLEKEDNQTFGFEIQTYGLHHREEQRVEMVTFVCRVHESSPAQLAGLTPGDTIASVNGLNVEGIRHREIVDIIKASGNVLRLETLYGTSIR
# Sequence of IL16_3, Q14005 (Q14005 1107-1207): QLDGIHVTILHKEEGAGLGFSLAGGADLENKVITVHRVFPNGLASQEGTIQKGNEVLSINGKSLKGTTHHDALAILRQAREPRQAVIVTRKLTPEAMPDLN
binder,measurement,setting,value
"KKYVDAETSL [SLC4A7, Q9Y6M7]",pKd,[1]; [26],4.4
same,pKd,[2]; [26],below the threshold
same,pKd,[3]; [26],below the threshold
same,pKd,[4]; [26],below the threshold
same,pKd,[5]; [26],3.73
same,pKd,[6]; [26],below the threshold
same,pKd,[7]; [26],below the threshold
same,pKd,[8]; [26],below the threshold
same,pKd,[9]; [26],below the threshold
same,pKd,[10]; [26],below the threshold
same,pKd,[11]; [26],4.14
same,pKd,[12]; [26],6.38
same,pKd,[13]; [26],below the threshold
same,pKd,[14]; [26],3.68
same,pKd,[15]; [26],below the threshold
same,pKd,[16]; [26],below the threshold
same,pKd,[17]; [26],3.5
same,pKd,[18]; [26],3.65
same,pKd,[19]; [26],5.54
same,pKd,[20]; [26],below the threshold
same,pKd,[21]; [26],3.49
same,pKd,[22]; [26],below the threshold
same,pKd,[23]; [26],below the threshold
same,pKd,[24]; [26],3.71
same,pKd,[25]; [26],below the threshold
"DKDPHSETAL [TMIGD1, Q6UXZ0]",pKd,[1]; [26],4.34
same,pKd,[2]; [26],below the threshold
same,pKd,[3]; [26],below the threshold
same,pKd,[4]; [26],below the threshold
same,pKd,[5]; [26],below the threshold
same,pKd,[6]; [26],below the threshold
same,pKd,[7]; [26],below the threshold
same,pKd,[8]; [26],below the threshold
same,pKd,[9]; [26],below the threshold
same,pKd,[10]; [26],below the threshold
same,pKd,[11]; [26],4.07
same,pKd,[12]; [26],5.64
same,pKd,[13]; [26],below the threshold
same,pKd,[14]; [26],3.79
same,pKd,[15]; [26],below the threshold
same,pKd,[16]; [26],below the threshold
same,pKd,[17]; [26],below the threshold
same,pKd,[18]; [26],below the threshold
same,pKd,[19]; [26],4.64
same,pKd,[20]; [26],below the threshold
same,pKd,[21]; [26],below the threshold
same,pKd,[22]; [26],below the threshold
same,pKd,[23]; [26],below the threshold
same,pKd,[24]; [26],below the threshold
same,pKd,[25]; [26],below the threshold
"SDSSGQEYSL [KCTD3, Q9Y597]",pKd,[1]; [27],4.69
same,pKd,[2]; [27],below the threshold
same,pKd,[3]; [27],below the threshold
same,pKd,[4]; [27],below the threshold
same,pKd,[5]; [27],below the threshold
same,pKd,[6]; [27],below the threshold
same,pKd,[7]; [27],below the threshold
same,pKd,[8]; [27],below the threshold
same,pKd,[9]; [27],below the threshold
same,pKd,[10]; [27],below the threshold
same,pKd,[11]; [27],below the threshold
same,pKd,[12]; [27],4.53
same,pKd,[13]; [27],below the threshold
same,pKd,[14]; [27],below the threshold
same,pKd,[15]; [27],below the threshold
same,pKd,[16]; [27],below the threshold
same,pKd,[17]; [27],below the threshold
same,pKd,[18]; [27],below the threshold
same,pKd,[19]; [27],below the threshold
same,pKd,[20]; [27],below the threshold
same,pKd,[21]; [27],below the threshold
same,pKd,[22]; [27],below the threshold
same,pKd,[23]; [27],below the threshold
same,pKd,[24]; [27],3.98
same,pKd,[25]; [27],below the threshold
"SSLQSLETSV [ATP2B4, P23634]",pKd,[1]; [26],below the threshold
same,pKd,[2]; [26],below the threshold
same,pKd,[3]; [26],3.52
same,pKd,[4]; [26],below the threshold
same,pKd,[5]; [26],3.6
same,pKd,[6]; [26],4.19
same,pKd,[7]; [26],3.59
same,pKd,[8]; [26],4.04
same,pKd,[9]; [26],3.6
same,pKd,[10]; [26],3.71
same,pKd,[11]; [26],4.91
same,pKd,[12]; [26],5.53
same,pKd,[13]; [26],below the threshold
same,pKd,[14]; [26],4.55
same,pKd,[15]; [26],below the threshold
same,pKd,[16]; [26],3.98
same,pKd,[17]; [26],below the threshold
same,pKd,[18]; [26],below the threshold
same,pKd,[19]; [26],5.03
same,pKd,[20]; [26],below the threshold
same,pKd,[21]; [26],4.35
same,pKd,[22]; [26],3.58
same,pKd,[23]; [26],3.7
same,pKd,[24]; [26],3.9
same,pKd,[25]; [26],5.08
"ESLLLGPSNF [SHROOM4, Q9ULL8]",pKd,[1]; [27],below the threshold
same,pKd,[2]; [27],below the threshold
same,pKd,[3]; [27],below the threshold
same,pKd,[4]; [27],below the threshold
same,pKd,[5]; [27],4.36
same,pKd,[6]; [27],below the threshold
same,pKd,[7]; [27],below the threshold
same,pKd,[8]; [27],below the threshold
same,pKd,[9]; [27],below the threshold
same,pKd,[10]; [27],below the threshold
same,pKd,[11]; [27],below the threshold
same,pKd,[12]; [27],below the threshold
same,pKd,[13]; [27],below the threshold
same,pKd,[14]; [27],below the threshold
same,pKd,[15]; [27],below the threshold
same,pKd,[16]; [27],below the threshold
same,pKd,[17]; [27],below the threshold
same,pKd,[18]; [27],below the threshold
same,pKd,[19]; [27],below the threshold
same,pKd,[20]; [27],below the threshold
same,pKd,[21]; [27],below the threshold
same,pKd,[22]; [27],below the threshold
same,pKd,[23]; [27],below the threshold
same,pKd,[24]; [27],below the threshold
same,pKd,[25]; [27],below the threshold
"RHTTSTETAV [HPV30-E6, P36809]",pKd,[1]; [26],below the threshold
same,pKd,[2]; [26],below the threshold
same,pKd,[3]; [26],3.84
same,pKd,[4]; [26],below the threshold
same,pKd,[5]; [26],3.96
same,pKd,[6]; [26],4.07
same,pKd,[7]; [26],below the threshold
same,pKd,[8]; [26],3.8
same,pKd,[9]; [26],below the threshold
same,pKd,[10]; [26],below the threshold
same,pKd,[11]; [26],4.72
same,pKd,[12]; [26],5.52
same,pKd,[13]; [26],below the threshold
same,pKd,[14]; [26],4.19
same,pKd,[15]; [26],below the threshold
same,pKd,[16]; [26],below the threshold
same,pKd,[17]; [26],below the threshold
same,pKd,[18]; [26],below the threshold
same,pKd,[19]; [26],4.76
same,pKd,[20]; [26],below the threshold
same,pKd,[21]; [26],4.45
same,pKd,[22]; [26],3.78
same,pKd,[23]; [26],3.67
same,pKd,[24]; [26],3.73
same,pKd,[25]; [26],5.19
